According to article PMC4014985 (Scientific Reports, 2014):

Assays:
Assay in all cases: ITC
[1] = target: MBP-MCAF1Δ8
[2] = target: 3-methyl purine DNA glycosylase (MPG) (UniProt P29372 18-298)
[3] = target: MBP-HDAC3 (UniProt O15379 1-428)
MBP-HDAC3, sequence (O15379 whole entry): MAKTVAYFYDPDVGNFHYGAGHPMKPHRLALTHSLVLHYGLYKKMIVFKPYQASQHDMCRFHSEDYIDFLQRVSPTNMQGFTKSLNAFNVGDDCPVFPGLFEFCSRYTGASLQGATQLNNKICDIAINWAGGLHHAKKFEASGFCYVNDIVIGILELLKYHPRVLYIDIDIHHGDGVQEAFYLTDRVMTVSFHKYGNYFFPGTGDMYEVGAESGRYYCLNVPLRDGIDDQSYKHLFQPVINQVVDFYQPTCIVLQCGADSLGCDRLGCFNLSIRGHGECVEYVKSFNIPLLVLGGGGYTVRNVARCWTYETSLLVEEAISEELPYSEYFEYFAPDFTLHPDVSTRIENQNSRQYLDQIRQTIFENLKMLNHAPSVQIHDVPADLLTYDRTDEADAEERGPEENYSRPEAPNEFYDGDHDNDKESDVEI

3-methyl purine DNA glycosylase (MPG), sequence (P29372 18-298): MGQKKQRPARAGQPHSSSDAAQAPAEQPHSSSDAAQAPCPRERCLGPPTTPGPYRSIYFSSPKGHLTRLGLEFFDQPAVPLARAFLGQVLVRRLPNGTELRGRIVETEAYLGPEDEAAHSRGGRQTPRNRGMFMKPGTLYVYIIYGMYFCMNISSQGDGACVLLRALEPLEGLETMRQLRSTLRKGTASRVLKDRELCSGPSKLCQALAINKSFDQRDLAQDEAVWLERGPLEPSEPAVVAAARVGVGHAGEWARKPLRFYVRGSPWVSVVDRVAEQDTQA

- Ka [1]: 160000 M⁻¹
- Kd [1]: 6400 nM
- dH [1]: -3.92 kcal/mol
- stoichiometry N [1]: 1.06
- Ka [2]: 450000 ± 0.09 M⁻¹
- Kd [2]: 2290 ± 490 nM
- dH [2]: -0.87 ± 0.09 kcal/mol
- stoichiometry N [2]: 1.1 ± 0.11
- Ka [3]: 430000 ± 0.07 M⁻¹
- Kd [3]: 2350 ± 370 nM
- dH [3]: -1.75 ± 0.78 kcal/mol
- stoichiometry N [3]: 0.98 ± 0.06
B1: C-terminus of MBD1 (MBD1-c, residues D507-Q605) (domain or fragment, human, UniProt Q9UIS9 507-605, looked up)
chain: DEWTPGTAVLTSPVLVPGCPSKAVDPGLPSVKQEPPDPEEDKEENKDDSASKLAPEEEAGGAGTPVITEIFSLGGTRFRDTAVWLPRSKDLKKPGARKQ
